Consider one molecule from paper PMC6789141, “ZC3H18 specifically binds and activates the BRCA1 promoter to facilitate homologous recombination in ovarian cancer”.

In the data set the target is T1, SFB-ZC3H18 (human, UniProt Q86VM9 1-953).
T1 sequence: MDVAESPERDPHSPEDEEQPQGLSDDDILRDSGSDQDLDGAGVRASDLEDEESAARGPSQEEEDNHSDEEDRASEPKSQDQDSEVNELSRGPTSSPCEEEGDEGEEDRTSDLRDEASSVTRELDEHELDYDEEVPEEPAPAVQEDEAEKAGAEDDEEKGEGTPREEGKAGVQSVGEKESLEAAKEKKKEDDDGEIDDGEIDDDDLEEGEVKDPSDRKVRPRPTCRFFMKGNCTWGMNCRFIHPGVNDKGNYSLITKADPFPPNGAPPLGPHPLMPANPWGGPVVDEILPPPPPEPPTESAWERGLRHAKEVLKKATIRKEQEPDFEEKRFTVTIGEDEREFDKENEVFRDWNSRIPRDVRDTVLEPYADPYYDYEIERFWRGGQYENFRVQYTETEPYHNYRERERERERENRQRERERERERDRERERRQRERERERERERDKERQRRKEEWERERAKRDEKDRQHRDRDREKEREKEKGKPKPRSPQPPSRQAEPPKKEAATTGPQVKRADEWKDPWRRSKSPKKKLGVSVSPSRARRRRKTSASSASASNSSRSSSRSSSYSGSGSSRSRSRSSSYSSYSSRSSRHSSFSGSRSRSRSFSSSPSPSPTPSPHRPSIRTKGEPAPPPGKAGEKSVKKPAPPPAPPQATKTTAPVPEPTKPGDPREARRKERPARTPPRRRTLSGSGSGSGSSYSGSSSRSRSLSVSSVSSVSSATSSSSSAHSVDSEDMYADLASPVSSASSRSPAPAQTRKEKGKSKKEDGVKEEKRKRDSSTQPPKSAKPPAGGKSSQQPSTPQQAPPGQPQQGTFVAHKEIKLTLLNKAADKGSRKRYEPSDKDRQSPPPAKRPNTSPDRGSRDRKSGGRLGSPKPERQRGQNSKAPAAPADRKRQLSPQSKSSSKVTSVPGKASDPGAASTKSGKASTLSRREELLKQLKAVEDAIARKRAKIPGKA
The data set is described as follows: EMSA; cold competition and anti-S-tag supershift confirm; EMSA: 20 mM Tris-HCl pH 8.0, 50 mM NaCl, 1 mM MgCl2, 5 mg/ml BSA, 1 mM DTT, 20 min at room temperature; 5% native gel, 0.25x TBE, 4 °C. The settings on record: protein: recombinant; C-terminal 6xHis; label: 32P 5' end; duplex of complementary 50-mers. In general terms: In EMSA bound probe runs differently from free probe, usually more slowly.

B1: E2FA/BWT (dsDNA)
DNA 1: TAGCCCCTTGGTTTCCGTGGCAACGGAAAAGCGCGGGAATTACAGATAAA
DNA 2: TTTATCTGTAATTCCCGCGCTTTTCCGTTGCCACGGAAACCAAGGGGCTA
On to B1, for which the binding result is listed as “binds”.
